In patent publication US7811992B2, “Anti-infarction molecules” (Stasys Technologies, Inc., priority 2002, dated 2010):
Read-outs that look alike come from different tables or passages of the source. Square brackets hold non-standard residues; d marks the D form. Side chains are listed from the residue outwards. Ends that are not written are not given here. Peptide text beside a SMILES is read from it. * marks the point of attachment. Acetyl(1-adamantyl) = O=C(CC12CC3CC(CC(C3)C1)C2)*; Hyp = O=C(O)[C@@H]1C[C@@H](O)CN1; 2Thi = N[C@@H](Cc1cccs1)C(=O)O; Nicotinoyl = O=C(c1cccnc1)*; Cbz = O=C(OCc1ccccc1)*

Columns and labels:
[1] = molecular target: T1, human angiotensin AT2 receptor (Homo sapiens, UniProt P50052); settings: for Activity/inhibition ATII binding assay: compounds screened at 10 μM, % inhibition of binding at the AT2 receptor; for nH: reference data, Hill coefficient; for inhibition at 10 µM: read-out: % Inhibition ATII receptor; for % Inhibition ATII receptor: screened at 10 μM
T1 sequence (P50052 1-363): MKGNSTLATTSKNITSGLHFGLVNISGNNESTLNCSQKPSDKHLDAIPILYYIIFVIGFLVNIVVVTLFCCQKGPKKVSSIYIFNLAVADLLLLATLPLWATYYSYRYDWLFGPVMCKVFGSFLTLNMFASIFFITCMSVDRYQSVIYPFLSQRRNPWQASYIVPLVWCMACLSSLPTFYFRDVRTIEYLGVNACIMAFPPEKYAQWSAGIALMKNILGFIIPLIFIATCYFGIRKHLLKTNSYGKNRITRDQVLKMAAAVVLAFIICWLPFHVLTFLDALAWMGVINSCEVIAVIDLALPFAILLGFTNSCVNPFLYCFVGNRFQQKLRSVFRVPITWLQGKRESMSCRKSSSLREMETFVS
Description: HeLa cells stably transfected with a plasmid encoding the human angiotensin AT2 receptor were used to prepare membranes in modified Tris HCl pH 7.4 by standard techniques. […] Non-specific binding was estimated in the presence of 10 μM. […] Compounds were screened at 10 μM. The ATII binding studies were performed essentially like that disclosed in Whitebread, S. E. et al., Radioligand CGP42112A: a novel high affinity and high selective ligand for the characterization of angiotensin AT2 receptors.

[2] = tested on: Inositol Triphosphate IP3; test: Receptor panel screen, ligand-receptor binding, FPAh 10 μM: Inositol Triphosphate IP3
Text: (§1) For example, FPA was used in a screen of 150 receptors to determine which receptors FPA could interact with. One way of assessing FPA interactions is to look at the amount that FPA can modulate a given receptor relative to its natural ligand. Disclosed in tables 13 and 14 are ligand-receptor binding studies that are, for example, modulated by more than 20% (inhibition or excitation) by the human form of Fibrinopeptide-A (FPA-h).

Potassium Channel [Ka] = test: Receptor panel screen, ligand-receptor binding, FPAh 10 μM: Potassium Channel [Ka]
Text: as §1

Bradykinin B1 = molecular target: T2, Bradykinin B1 (Homo sapiens, UniProt P46663); test: Receptor panel screen, ligand-receptor binding, FPAh 10 μM: Bradykinin B1
T2 sequence (P46663 1-353): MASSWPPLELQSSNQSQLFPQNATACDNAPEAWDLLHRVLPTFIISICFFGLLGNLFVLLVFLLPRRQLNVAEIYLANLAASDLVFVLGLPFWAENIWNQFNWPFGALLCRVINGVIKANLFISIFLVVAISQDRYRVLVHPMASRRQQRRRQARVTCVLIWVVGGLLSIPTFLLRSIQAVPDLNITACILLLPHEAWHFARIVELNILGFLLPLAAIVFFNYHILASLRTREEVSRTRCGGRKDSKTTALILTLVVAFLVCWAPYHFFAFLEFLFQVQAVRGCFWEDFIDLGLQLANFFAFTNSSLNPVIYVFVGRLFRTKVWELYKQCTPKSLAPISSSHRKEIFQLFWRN
Text: as §1

Cholecystokinin = test: Receptor panel screen, ligand-receptor binding, FPAh 10 μM: Cholecystokinin
Text: as §1

Estrogen ERa = molecular target: T3, Estrogen ERa (Homo sapiens, UniProt P03372); test: Receptor panel screen, ligand-receptor binding, FPAh 10 μM: Estrogen ERa
T3 sequence (P03372 1-595): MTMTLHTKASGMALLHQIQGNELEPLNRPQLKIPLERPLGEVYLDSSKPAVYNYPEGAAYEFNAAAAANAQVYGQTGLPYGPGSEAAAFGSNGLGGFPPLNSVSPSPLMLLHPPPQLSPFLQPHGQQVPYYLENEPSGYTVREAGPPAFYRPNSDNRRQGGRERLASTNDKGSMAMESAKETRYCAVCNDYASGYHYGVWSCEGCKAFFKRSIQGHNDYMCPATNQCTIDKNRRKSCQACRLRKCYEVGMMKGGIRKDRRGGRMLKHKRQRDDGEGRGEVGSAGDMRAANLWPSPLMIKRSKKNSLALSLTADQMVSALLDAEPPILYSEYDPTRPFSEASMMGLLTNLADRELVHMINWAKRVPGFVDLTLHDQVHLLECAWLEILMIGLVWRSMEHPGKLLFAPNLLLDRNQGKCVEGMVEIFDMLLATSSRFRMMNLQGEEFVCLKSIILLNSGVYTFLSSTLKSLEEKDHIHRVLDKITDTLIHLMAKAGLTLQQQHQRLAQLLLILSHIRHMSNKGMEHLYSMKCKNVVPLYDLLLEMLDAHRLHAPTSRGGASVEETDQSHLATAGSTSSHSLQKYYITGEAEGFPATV
Text: as §1

Glutamate AMPA = test: Receptor panel screen, ligand-receptor binding, FPAh 10 μM: Glutamate AMPA
Text: as §1

[3] = tested on: Vascular endothelial growth factor; test: Receptor panel screen, ligand-receptor binding, FPAh 10 μM: Vascular endothelial growth factor
Text: as §1

Serotonin 5-HT 2a = Serotonin 5-HT 2a (Homo sapiens, UniProt P28223); test: Receptor panel screen, ligand-receptor binding, FPAh 10 μM: Serotonin 5-HT 2a
Text: as §1

[4] = molecular target: T4, Thyrotropin Releasing Hormone (Homo sapiens, UniProt P34981); test: Receptor panel screen, ligand-receptor binding, FPAh 10 μM: Thyrotropin Releasing Hormone
T4 sequence (P34981 1-398): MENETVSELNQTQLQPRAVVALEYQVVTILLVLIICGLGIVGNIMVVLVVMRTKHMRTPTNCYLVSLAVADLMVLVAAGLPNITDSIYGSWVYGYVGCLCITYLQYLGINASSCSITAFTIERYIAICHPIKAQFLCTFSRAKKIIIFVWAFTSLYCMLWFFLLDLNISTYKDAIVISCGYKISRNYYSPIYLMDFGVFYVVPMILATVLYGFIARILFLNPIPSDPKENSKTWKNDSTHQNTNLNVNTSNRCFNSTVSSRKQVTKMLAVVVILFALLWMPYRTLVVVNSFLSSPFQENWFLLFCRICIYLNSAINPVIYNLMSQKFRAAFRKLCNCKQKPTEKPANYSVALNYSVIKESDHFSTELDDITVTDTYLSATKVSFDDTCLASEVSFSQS
Text: as §1

Chain of Serotonin 5-HT 2a (P28223 whole entry): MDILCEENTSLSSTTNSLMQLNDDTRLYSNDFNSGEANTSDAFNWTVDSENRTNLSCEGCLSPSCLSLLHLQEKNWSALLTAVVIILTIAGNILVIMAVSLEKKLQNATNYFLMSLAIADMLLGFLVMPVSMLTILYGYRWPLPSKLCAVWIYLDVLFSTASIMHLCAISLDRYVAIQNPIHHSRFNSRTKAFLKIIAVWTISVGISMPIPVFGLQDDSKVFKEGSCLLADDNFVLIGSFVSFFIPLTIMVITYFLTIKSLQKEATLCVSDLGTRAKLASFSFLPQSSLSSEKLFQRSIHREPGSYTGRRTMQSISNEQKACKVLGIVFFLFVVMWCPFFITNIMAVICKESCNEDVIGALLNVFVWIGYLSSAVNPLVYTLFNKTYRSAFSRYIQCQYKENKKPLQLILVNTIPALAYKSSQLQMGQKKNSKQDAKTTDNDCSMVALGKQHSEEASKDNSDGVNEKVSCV

## NC(N)=NCCC[C@H](NC(=O)[C@H](Cc1ccccc1)NC(=O)[C@@H]1CCCN1C(=O)[C@H](CO)NC(=O)[C@H](Cc1ccccc1)NC(=O)CNC(=O)[C@@H]1CCCN1C(=O)[C@@H]1CCCN1C(=O)[C@@H](N)CCCN=C(N)N)C(=O)O [Bradykinin]
[1]; 10 µM
  Activity/inhibition ATII binding assay: 12%

## CC[C@H](C)[C@H](NC(=O)[C@@H]1CCCN1C(=O)[C@H](Cc1c[nH]cn1)NC(=O)[C@H](CCCCNC(=O)[C@H](CCCNC(=N)N)NC(=O)OCc1ccccc1)NC(=O)[C@H](Cc1ccc(O)cc1)NC(=O)c1cccnc1)C(=O)O [CGP-42112A, nicotinic acid-Tyr-(N-benzoylcarbonyl-Arg)Lys-His-Pro-Ile-OH, reference compound] (Nicotinoyl-YK([Arg-Cbz])HPI-OH)
[1]
  nH: 1.1

## CNCC(=O)N[C@@H](CCCN=C(N)N)C(=O)N[C@H](C(=O)N[C@@H](Cc1ccc(O)cc1)C(=O)N[C@H](C(=O)N[C@@H](Cc1cnc[nH]1)C(=O)N1CCC[C@H]1C(=O)N[C@@H](C)C(=O)O)C(C)C)C(C)C [Saralasin]
[1]
  nH: 0.9

## N=C(N)NCCC[C@H](NC(=O)[C@H](Cc1cccs1)NC(=O)[C@@H](Cc1ccccc1)NC(=O)[C@H](CO)NC(=O)[C@H](Cc1cccs1)NC(=O)CNC(=O)[C@@H]1CCCN1C(=O)[C@@H]1CCCN1C(=O)[C@@H](N)CCCNC(=N)N)C(=O)O [VP045] (H-RPPG[2Thi]S[dF][2Thi]R-OH)
[1]
  inhibition at 10 µM: 53%

## N=C(N)NCCC[C@H](NC(=O)[C@H](Cc1cccs1)NC(=O)[C@@H](Cc1ccccc1)NC(=O)[C@H](CO)NC(=O)[C@H](Cc1cccs1)NC(=O)CNC(=O)[C@@H]1C[C@@H](O)CN1C(=O)[C@@H]1CCCN1C(=O)[C@H](CCCNC(=N)N)NC(=O)[C@@H](CCCNC(=N)N)NC(=O)CC12CC3CC(CC(C3)C1)C2)C(=O)O [VP046] ({Acetyl(1-adamantyl)}-[dR]RP[Hyp]G[2Thi]S[dF][2Thi]R-OH)
[1]
  inhibition at 10 µM: 61%

## CC[C@H](C)[C@H](NC(=O)[C@@H]1CCCN1C(=O)[C@H](Cc1c[nH]cn1)NC(=O)[C@@H](NC(=O)[C@H](Cc1ccc(O)cc1)NC(=O)[C@@H](NC(=O)[C@H](CCCNC(=N)N)NC(=O)CNC)C(C)C)[C@@H](C)CC)C(=O)O [[Sar^1, Ile^8] Angiotensin II]
[1]
  nH: 1.0

## (DArg-Arg-Pro-Hyp-Gly-Thi-Ser-DTic-Oic-Arg (XRPXGXSXXR; D-residues; non-natural residues) [Hoe 140, reference compound]
[1]
  Activity/inhibition ATII binding assay: 29%

## ADSGE GDFLAEGGGVR (ADSGEGDFLAEGGGVR) [FPA-h, synthesized human Fibrinopeptide-A]
[2]
  Inhibited: 33%
Potassium Channel [Ka]
  Inhibited: 25%
Bradykinin B1
  Inhibited: 24%
Cholecystokinin
  Inhibited: 33%
Estrogen ERa
  Inhibited: 33%
Glutamate AMPA
  Stimulated: 30%
[3]
  Stimulated: 22%
Serotonin 5-HT 2a
  Stimulated: 21%
[4]
  Inhibited: 23%

## Arg-Pro-Pro (RPP) [Bradykinin (1-3)]
[1]
  Activity/inhibition ATII binding assay: −2%

## Arg-Pro-Pro-Gly-Phe (RPPGF) [Bradykinin (1-5)]
[1]
  Activity/inhibition ATII binding assay: 1%

## Arg-Pro-Pro-Gly-Phe-Ser-DPhe-Phe-Arg (RPPGFS[dF]FR) [DPhe7] Bradykinin]
[1]
  Activity/inhibition ATII binding assay: 60 9%

## Arg-Pro-Pro-Gly-Thi-Ser-DPhe-Thi-Arg (RPPG[2Thi]S[dF][2Thi]R) [[Thi5,8,DPhe7] Bradykinin]
[1]
  Activity/inhibition ATII binding assay: 53%

## DArg-Arg-Pro-Hyp-Gly-Igl-Ser-Dlgl-Oic-Arg (XRPXGXSXXR; D-residues; non-natural residues) [B9430]
[1]
  Activity/inhibition ATII binding assay: 70%

## DArg-Arg-Pro-Hyp-Gly-Thi-Ser-Dlgl Oic-Arg (XRPXGXSXXR; D-residues; non-natural residues) [B9340]
[1]
  Activity/inhibition ATII binding assay: 35%

## N-Adamantaneacetyl-DArg-Arg-Pro-Hyp-Gly-Thi-Ser-DPhe-Thi-Arg
[1]
  Activity/inhibition ATII binding assay: 61%

## N-Admantanecarbonyl-DArg0-HyP3, Thi5,8, DPhe7] Bradykinin
[1]
  Activity/inhibition ATII binding assay: 63%

## PPGFSP [Bradykinin (2-7)]
[1]
  Activity/inhibition ATII binding assay: −6%

## PPGFSPFR [Bradykinin (2-9)]
[1]
  Activity/inhibition ATII binding assay: −13%

## RPPGFS [Bradykinin (1-6)]
[1]
  Activity/inhibition ATII binding assay: −12%

## VP042 (XRPXGXSXXR; D-residues; non-natural residues)
[1]
  % Inhibition ATII receptor: 29%

## VP043 (RPPGFS[dF]FR)
[1]
  % Inhibition ATII receptor: 9%

## VP052 (RPPGFSPYR)
[1]
  % Inhibition ATII receptor: −1%

## VP057 (RPP)
[1]
  % Inhibition ATII receptor: −2%

## VP058 (RPPGF)
[1]
  % Inhibition ATII receptor: 1%

## VP059 (RPPGFS)
[1]
  % Inhibition ATII receptor: −12%

## VP061 (PPGFSP)
[1]
  % Inhibition ATII receptor: −6%

## VP062 (PPGFSPFR)
[1]
  % Inhibition ATII receptor: −13%

## VP063 (XRPXGXSXXR; D-residues; non-natural residues)
[1]
  % Inhibition ATII receptor: 35%

## VP064 (XRPXGXSXXR; D-residues; non-natural residues)
[1]
  % Inhibition ATII receptor: 70%
